The text below walks through data of patent publication US12006368 (SURROZEN OPERATING, dated 2024).

Residue numbers refer to the chain shown, from its start.

To fix the notation:
B1: 005S-D11 (Fab, V domains shown)
VH: QVQLVQSGAEVKKPGASVKVSCKASGYTFTNNFMHWVRQAPGQGLEWMGWINPNSGDTKFAPKFQGRVTMTRDTSTSTVYMELSSLRSEDTAVYYCAREANYDILTGYIRPDAFDIWGQGTTVTVSS
VL: EIVLTQSPATLSVSPGERATLSCRASQSLRSKLAWYQQKPGQAPRLLIYGASTRATGIPARFSGSGSGTEFTLTISSLQSEDFAVYYCQQYANSPWTFGPGTKVDIKR
B2: 005S-D08 (Fab, V domains shown)
VH: EVQLVESGGGLVQPGGSLRLSCAASGFAFSSHWMHWVRQAPGKGLEWVSAIDGSGGSTYYADSVKGRFTISRDNSKNTLYLQMNSLRAEDTAVYYCARDRQLGWAHWYFDLWGRGTLVTVSS
VL: not shown
B3: 017S-B09 (VHH)
VHH: AVQQVESGGGLVQPGGSLRLSCAASGFTLDYYAISWFRQAPGKKRELVADITSGGSTNYADSVKGRFTISRDNAKNTIYLQMNSLKPEDTAVYFCNAVTYNGYTIWGQGTQVTVSS
B4: 014S-G06 (Fab, V domains shown)
VH: EVQLVESGGGLVKPGGSLRLSCAASGFTFSSYAMHWVRQAPGKGLEWVSAIGAGGGTYYADSVKGRFTISRDDSKNTLYLQMNSLKTEDTAVYYCARDAYNWFDPWGQGTLVTVSS
VL: not shown
B5: 005S-E09 (Fab, V domains shown)
VH: EVQLVQSGGGLVQPGGSLRLSCAASGFNLRRYNMNWVRQAPGKGLEWVSRISNSGSLVYYADSVKGRFTISRDNSKNTLYLQMNSLRAEDTAVYYCARDADSSGYYRYDAFDIWGQGTMVTVSS
VL: EIVLTQSPATLSVSPGERATLSCRASQSVSSNLAWYQQKPGQAPRLLIYDASNRATGIPARFSGSGSGTEFTLTISSLQSEDFAVYYCQQRNNWLYTFGQGTKVEIKR
B6: 005S-A07 (Fab, V domains shown)
VH: QVQLVQSGAEVKKPGSSVKVSCKASGFTFTGSAVQWVRQAPGQGLEWVGGILPIYGTTKYAQKFQGRVTITADESTSTAYMELSSLRSEDTAVYYCARGARLYGFDYWGQGTLVTVSS
VL: B5 VL with S31R, D50G, N53T, N92S, L95P, Y96I, K103R, V104L
B7: 004S-A11 (Fab, V domains shown)
VH: QVQLVQSGAEVKKPGSSVKVSCKASGGTFSSYAISWVRQAPGQGLEWMGRIIPILGIANYAQKFQGRVTITADESTSTAYMELSSLRSEDTAVYYCARESVNNYYYMDVWGKGTTVTVSS
VL: not shown
B8: 014S-A07 (Fab, V domains shown)
VH: EVQLVESGGGLVKPGGSLRLSCAASGFTFSNAQMSWVRQAPGKGLEWVSAIGTGGGTYYADSVKGRFTISRDDSKNTLYLQMNSLKTEDTAVYYCAREGSYYDWYFDLWGRGTLVTVSS
VL: EIVLTQSPATLSVSPGERATLSCRASQNIGSRLAWYQQKPGQAPRLLIYGASNRASGIPARFSGSGSGTEFTLTISSLQSEDFAVYYCQQYNHWPPLFTFGPGTKVDIKR
B9: 005S-H10 (Fab, V domains shown)
VH: QVQLVQSGAEVKKPGSSVKVSCKASGGAFSTSSISWVRQAPGQGLEWVGRIIPVLGTANYAQKFQGRVTITADESTSTAYMELSSLRSEDTAVYYCAKGGWRSSFDPWGQGTLVTVSS
VL: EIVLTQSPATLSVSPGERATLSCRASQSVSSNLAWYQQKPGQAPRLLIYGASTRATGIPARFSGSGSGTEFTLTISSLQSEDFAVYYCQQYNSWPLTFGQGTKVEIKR
B10: 005S-B11 (Fab, V domains shown)
VH: QVQLVQSGAEVKKPGASVKVSCKASGYTFTSYDINWVRQAPGQGLEWMGGFDPEDGETIYAQKFQGRVTMTRDTSTSTVYMELSSLRSEDTAVYYCAKAGDWGLYGMDVWGQGTMVTVSS
VL: DIQMTQSPSSLSASVGDRVTITCRASQSISRWLAWYQQKPGKAPKLLIYAASSLQSGVPSRFSGSGSGTDFTLTISSLQPEDFATYYCQQTNTFPFTFGPGTKVDIKR
B11: 005S-B07 (Fab, V domains shown)
VH: QVQLVQSGAEVKKPGASVKVSCKASGFTFTSSAVQWVRQAPGQGLEWMGWMNPNSGNTGYAQKFQGRVTMTRDTSTSTVYMELSSLRSEDTAVYYCARGRGQQWLTGYYGMDVWGQGTTVTVSS
VL: B10 VL with S28G, R31S, W32A, A50G, S53T, Q89L, T91D, N92Y, T93N, F94Y
B12: 014S-B04 (Fab, V domains shown)
VH: QVQLVQSGAEVKKPGASVKVSCKASGYIFTDYYMHWVRQAPGQGLEWMGWMNPNSGNTGYAQKFQGRVTMTRDTSTSTVYMELSSLRSEDTAVYYCARGGSRYDFWSGHWYFDLWGRGTLVTVSS
VL: B10 VL with S28G, R31N, W32Y, T91S, N92Y, T93S, F94T, P100Q, D105E
B13: 005S-E12 (Fab, V domains shown)
VH: QVQLVQSGAEVKKPGASVKVSCKASGYIFTDYYMHWVRQAPGQGLEWMGVIFPVYPTPDYAQKFQGRVTMTRDTSTSTVYMELSSLRSEDTAVYYCARGGSTGYYGMDVWGQGTTVTVSS
VL: B10 VL with I29V, S30G, L33M, T91A
B14: 014S-B06 (Fab, V domains shown)
VH: EVQLVQSGGGLVKPGGSLRLSCAASGFTFSSYSMNWVRQAPGKGLEWVSYIENDGSITTYADSVKGRFTISRDDSKNTLYLQMNSLKTEDTAVYYCARAPYYYGSGSLFRLDYWGQGTLVTVSS
VL: not shown
B15: 004S-F10 (Fab, V domains shown)
VH: EVQLVESGGGLVQPGGSLRLSCAASGFTFSDHYMSWVRQAPGKGLEWVALVGYDGSQQFYGESVKGRFTISRDNSKNTLYLQMNSLRAEDTAVYYCNTGIPMLYWGQGTLVTVSS
VL: not shown
B16: 004S-A12 (Fab, V domains shown)
VH: QVQLVQSGAEVKKPGASVKVSCKASGYTFTNNFMHWVRQAPGQGLEWMGRINPNSGGTNYAQKFQGRVTMTRDTSTSTVYMELSSLRSEDTAVYYCARGQGYSSGWYRGDAFDIWGQGTTVTVSS
VL: not shown
B17: 014S-G02 (Fab, V domains shown)
VH: QVQLVQSGAEVKKPGASVKVSCKASGYTFTSYYMNWVRQAPGQGLEWMGIISPSGGSTSYAQKFQGRVTMTRDTSTSTVYMELSSLRSEDTAVYYCARWGDYGDLYYFDYWGQGTLVTVSS
VL: DIQMTQSPSSLSASVGDRVTITCRASQGISSALAWYQQKPGKAPKLLIYATSTLQSGVPSRFSGSGSGTDFTLTISSLQPEDFATYYCQQVNSYPPTFGQGTKLEIKR
B18: 003S-D10 (Fab, V domains shown)
VH: EVQLVESGGGLVKPGGSLRLSCAASGFNFGIYSMTWVRQAPGKGLEWISYISGDSGYTNYADSVKGRFTISRDDSKNTLYLQMNSLKTEDTAVYYCARVGPGGWFDPWGQGTLVTVSS
VL: B17 VL with A32Y, T51A, T53N, Q55L, S56G, V91T, N92Y, Y94T, P96W, L104V

One assay deals with Fzd1 cysteine rich domain (CRD), C-terminally biotinylated (human, UniProt Q9UP38 101-230). The experiment in a line: BLI. Here is the method:
(§1) Binding kinetics of antibody fragments to a variety of Fzd cysteine rich domain (CRD) protein targets (Fzd1, Fzd2, Fzd3, Fzd4, Fzd5, Fzd6, Fzd7, Fzd8, Fzd9 and/or Fzd10 CRDs) was determined by bio-layer interferometry (BLI) using Octet Red 96 (PALL ForteBio, Fremont, CA) instruments at 30° C., 1000 rpm with streptavidin (SA) biosensors. C-terminal biotinylated Fzd CRD recombinant protein was diluted to 20 nM in the running buffer (PBS, 0.05% Tween-20, 0.5% BSA, pH 7.2) and captured to the SA biosensor until coupling length reached 0.2 nm. Following capture of the Fzd CRD, the SA biosensor with captured biotinylated-Fzd CRD was dipped into wells containing the relevant antibody fragment at […] (0, 1.37, 4.12, 12.4, 37, 111.1, 333.3, 1000 nM) in running buffer, plus a well with only running buffer as a reference channel. […] was determined by global fitting, 1:1 binding model according to manufacturer recommended settings.
(§2) Table 1B provides clone IDs, the sequence identifier number of the antibody heavy chain fragment and/or light chain fragment, if present, for illustrative clones. In certain embodiments, the Fzd binding domain is an Fab or was derived from an Fab, so the heavy chain of Table 1B includes VH and CH1 sequence, but not CH2 or CH3 sequences. In certain embodiments, the Fzd binding domain is a VHH or sdAb® or was derived from a VHH or sdAb, so Table 1B includes the VHH domain. […] The Kd values were determined by BLI as described above. Blank entries denote that the binding to the specific Fzd receptor has not yet been determined. The entry of "n.b." indicates no binding.
With B1, the binding result was “no binding (tested: 1000 nM)”.

Take B2: the binding result is on record as “no binding (tested: 1000 nM)”.

Consider B3, for which the binding result is listed as “no binding (tested: 1000 nM)”.

In the case of B4, the binding result is listed as “no binding (tested: 1000 nM)”.

As for B5, the binding result is reported as “no binding (tested: 1000 nM)”.

Consider B6, for which the binding result is recorded as “no binding (tested: 1000 nM)”.

With B7, the binding result was “no binding (tested: 1000 nM)”.

Consider B8, for which the binding result was “no binding (tested: 1000 nM)”.

For the molecule B9, the binding result is “no binding (tested: 1000 nM)”.

For B10, the binding result is reported as “no binding (tested: 1000 nM)”.

As to B11, the binding result is “no binding (tested: 1000 nM)”.

For the molecule B12, the binding result was “no binding (tested: 1000 nM)”.

As for B13, the binding result was “no binding (tested: 1000 nM)”.

With B14, the binding result is on record as “no binding (tested: 1000 nM)”.

Turning to B15, the binding result is “no binding (tested: 1000 nM)”.

B16: the binding result is “no binding (tested: 1000 nM)”.

With B17, the binding result is listed as “no binding (tested: 1000 nM)”.

On to B18, for which the binding result is recorded as “no binding (tested: 1000 nM)”.

The next assay addresses Fzd2 cysteine rich domain (CRD), C-terminally biotinylated (human, UniProt Q14332 24-155). Put plainly: BLI. Here is the method:
as §1, §2
Consider B1, for which the binding result is on record as “no binding (tested: 1000 nM)”.

In the case of B2, the binding result is listed as “no binding (tested: 1000 nM)”.

As for B3, the binding result is “no binding (tested: 1000 nM)”.

B4: the binding result was “no binding (tested: 1000 nM)”.

For the molecule B5, the binding result is on record as “no binding (tested: 1000 nM)”.

As to B6, the binding result is recorded as “no binding (tested: 1000 nM)”.

For B7, the binding result is recorded as “no binding (tested: 1000 nM)”.

With B8, the binding result was “no binding (tested: 1000 nM)”.

As for B9, the binding result is listed as “no binding (tested: 1000 nM)”.

Regarding B10, the binding result was “no binding (tested: 1000 nM)”.

For the molecule B11, the binding result is “no binding (tested: 1000 nM)”.

Take B12: the binding result is “no binding (tested: 1000 nM)”.

On to B13, for which the binding result is on record as “no binding (tested: 1000 nM)”.

As to B14, the binding result was “no binding (tested: 1000 nM)”.

For the molecule B15, the binding result is “no binding (tested: 1000 nM)”.

As to B16, the binding result is listed as “no binding (tested: 1000 nM)”.

For the molecule B17, the binding result is given as “no binding (tested: 1000 nM)”.

As to B18, the binding result is on record as “no binding (tested: 1000 nM)”.
